Earlier results on 1 substance are cited in publication PMC3418248 (2012).

The pKd is the Kd on a negative log10 scale, so that one unit is a factor of ten.

For the data set, the target named is FtsZ C-terminal 17 amino acids (Bacillus subtilis) (UniProt P17865). Particulars: cited from earlier work.

pKd: −log10 of the molar value.

EzrA, sequence (O34894 whole entry): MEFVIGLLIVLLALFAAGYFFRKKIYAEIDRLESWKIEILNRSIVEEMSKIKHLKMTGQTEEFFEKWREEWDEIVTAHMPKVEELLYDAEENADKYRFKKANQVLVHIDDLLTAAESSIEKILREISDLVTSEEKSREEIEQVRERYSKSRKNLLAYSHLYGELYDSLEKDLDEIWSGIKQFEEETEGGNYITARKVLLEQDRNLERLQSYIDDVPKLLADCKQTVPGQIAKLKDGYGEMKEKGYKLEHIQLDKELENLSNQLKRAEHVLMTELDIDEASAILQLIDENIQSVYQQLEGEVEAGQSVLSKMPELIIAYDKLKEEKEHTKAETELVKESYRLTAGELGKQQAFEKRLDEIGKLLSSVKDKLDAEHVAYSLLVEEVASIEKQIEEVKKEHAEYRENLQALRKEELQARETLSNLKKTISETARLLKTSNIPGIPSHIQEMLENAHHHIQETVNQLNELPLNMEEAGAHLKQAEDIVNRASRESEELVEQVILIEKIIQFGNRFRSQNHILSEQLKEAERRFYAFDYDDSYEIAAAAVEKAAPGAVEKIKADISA

Take EzrA (from UniProt O34894): the pKd was 3.99.
